Results on 2 molecules are retold here after PMC3448794 (Biochemistry, 2012).

For assay [1], the target named is T1, human L-asparaginase (hASNase3), cleaved state (alpha- and beta-chains) (human, UniProt Q7L266 1-167; Q7L266 168-308).
T1 sequence (looked up) 1: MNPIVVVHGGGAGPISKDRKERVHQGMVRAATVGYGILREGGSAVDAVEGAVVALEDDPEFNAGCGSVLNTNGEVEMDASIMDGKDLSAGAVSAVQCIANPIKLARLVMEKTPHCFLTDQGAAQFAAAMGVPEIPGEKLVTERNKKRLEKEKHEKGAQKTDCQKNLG
T1 sequence (looked up) 2: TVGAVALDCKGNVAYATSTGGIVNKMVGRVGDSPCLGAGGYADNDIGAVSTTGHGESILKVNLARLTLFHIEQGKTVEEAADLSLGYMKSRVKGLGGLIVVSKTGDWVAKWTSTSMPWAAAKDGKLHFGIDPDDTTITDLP
Put plainly: crystal structure.

Assay [2] deals with T2, alpha-chain of cleaved human L-asparaginase (hASNase3) (human, UniProt Q7L266 1-167).
T2 sequence (looked up): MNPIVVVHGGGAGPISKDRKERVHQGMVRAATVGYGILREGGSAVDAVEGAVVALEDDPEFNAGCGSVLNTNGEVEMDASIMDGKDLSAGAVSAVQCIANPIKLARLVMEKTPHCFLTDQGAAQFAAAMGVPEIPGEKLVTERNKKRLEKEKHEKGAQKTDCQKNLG
The assay is described as follows: crystal structure.

B1: human L-asparaginase (hASNase3), uncleaved state (enzyme, UniProt Q7L266 1-308, looked up)
chain: MNPIVVVHGGGAGPISKDRKERVHQGMVRAATVGYGILREGGSAVDAVEGAVVALEDDPEFNAGCGSVLNTNGEVEMDASIMDGKDLSAGAVSAVQCIANPIKLARLVMEKTPHCFLTDQGAAQFAAAMGVPEIPGEKLVTERNKKRLEKEKHEKGAQKTDCQKNLGTVGAVALDCKGNVAYATSTGGIVNKMVGRVGDSPCLGAGGYADNDIGAVSTTGHGESILKVNLARLTLFHIEQGKTVEEAADLSLGYMKSRVKGLGGLIVVSKTGDWVAKWTSTSMPWAAAKDGKLHFGIDPDDTTITDLP
Take B1: in assay [1], the binding result is given as “binds”.

B2: beta-chain of cleaved human L-asparaginase (hASNase3) (domain or fragment, UniProt Q7L266 168-308, looked up)
chain: TVGAVALDCKGNVAYATSTGGIVNKMVGRVGDSPCLGAGGYADNDIGAVSTTGHGESILKVNLARLTLFHIEQGKTVEEAADLSLGYMKSRVKGLGGLIVVSKTGDWVAKWTSTSMPWAAAKDGKLHFGIDPDDTTITDLP
Take B2: in assay [2], the binding result was “binds”.
